Test results: patent US10800847
One block for each substance: values may come before it.

Tests used:
[1] = biological target: HLA-A*6901 (A69) single antigen on Luminex beads (human); test: Luminex single antigen bead assay, iBeads (#6), IVIg 1:4
[2] = biological target: HLA-A*8001 (A80) single antigen on Luminex beads (human); test: as above
[3] = biological target: HLA-A*6802 (A68) single antigen on Luminex beads (human); test: as above
[4] = biological target: HLA-A*7401 (A74) single antigen on Luminex beads (human); test: as above
HLA-B*0702 (B7) (human) = test: Luminex iBeads (#6), IVIg diluted 1:4
HLA-B*1501 (B62) (human) = test: Luminex iBeads (#6), IVIg diluted 1:4
[5] = biological target: Serum albumin on negative control beads (HSA/BSA) (human or bovine); test: Luminex iBeads (#6), IVIg diluted 1:4
HLA-B*1503 (B72) (human) = test: Luminex iBeads (#6), IVIg diluted 1:4
HLA-B*1801 (B18) (human) = test: Luminex iBeads (#6), IVIg diluted 1:4
HLA-B*0801 (B8) (human) = test: Luminex iBeads (#6), IVIg diluted 1:4
HLA-B*1516 (B63) (human) = test: Luminex iBeads (#6), IVIg diluted 1:4
HLA-B*1402 (B65) (human) = test: Luminex iBeads (#6), IVIg diluted 1:4
[6] = biological target: HLA-B*4501 (B45) single antigen on Luminex beads (human); test: Luminex single antigen, iBead vs regular bead, IVIg 1:8
[7] = biological target: HLA-B*3701 (B37) single antigen on Luminex beads (human); test: as above
[8] = biological target: HLA-B*3801 (B38) single antigen on Luminex beads (human); test: as above
[9] = biological target: HLA-B*2708 (B27) single antigen on Luminex beads (human); test: as above
[10] = biological target: HLA-B*4001 (B60) single antigen on Luminex beads (human); test: as above
[11] = biological target: HLA-B*4006 (B61) single antigen on Luminex beads (human); test: as above
[12] = biological target: HLA-B*3901 (B39) single antigen on Luminex beads (human); test: as above
[13] = biological target: HLA-B*4402 (B44) single antigen on Luminex beads (human); test: as above
[14] = biological target: HLA-B*4701 (B47) single antigen on Luminex beads (human); test: as above
[15] = biological target: HLA-B*3501 (B35) single antigen on Luminex beads (human); test: as above
[16] = biological target: HLA-B*4101 (B41) single antigen on Luminex beads (human); test: as above
[17] = biological target: HLA-B*2705 (B27) single antigen on Luminex beads (human); test: as above
[18] = biological target: HLA-B*4403 (B44) single antigen on Luminex beads (human); test: as above
[19] = biological target: HLA-B*4002 (B61) single antigen on Luminex beads (human); test: as above
[20] = biological target: HLA-B*4201 (B42) single antigen on Luminex beads (human); test: as above
[21] = biological target: HLA-B*4501 (B45) single antigen on Luminex beads (human); test: Luminex single antigen, regular beads (#7), IVIg 1:8
[22] = biological target: HLA-B*3701 (B37) single antigen on Luminex beads (human); test: as above
[23] = biological target: HLA-B*3801 (B38) single antigen on Luminex beads (human); test: as above
[24] = biological target: HLA-B*2708 (B27) single antigen on Luminex beads (human); test: as above
[25] = biological target: HLA-B*4006 (B61) single antigen on Luminex beads (human); test: as above
[26] = biological target: HLA-B*3901 (B39) single antigen on Luminex beads (human); test: as above
[27] = biological target: HLA-B*4402 (B44) single antigen on Luminex beads (human); test: as above
[28] = biological target: HLA-B*4701 (B47) single antigen on Luminex beads (human); test: as above
[29] = biological target: HLA-B*3501 (B35) single antigen on Luminex beads (human); test: as above
[30] = biological target: HLA-B*4601 (B46) single antigen on Luminex beads (human); test: as above
[31] = biological target: HLA-B*4101 (B41) single antigen on Luminex beads (human); test: as above
[32] = biological target: HLA-B*4201 (B42) single antigen on Luminex beads (human); test: as above
[33] = biological target: HLA-A*0301 (A3) on single antigen beads (human) (UniProt P04439); test: Luminex single antigen beads, iBeads (#6), 1:8
[34] = biological target: Albumin on negative control beads (serum albumin, HSA/BSA) (human or bovine); test: Luminex single antigen beads, iBeads (#6), 1:8

- MFI [1]: 788 MFI
- MFI [2]: 564 MFI
- MFI [3]: 596 MFI
- MFI [4]: 316 MFI
- MFI (HLA-B*0702 (B7) (human)): 436 MFI
- MFI (HLA-B*1501 (B62) (human)): 148 MFI
- MFI [5]: 667 MFI
- MFI (HLA-B*1503 (B72) (human)): 0 MFI
- MFI (HLA-B*1801 (B18) (human)): 114 MFI
- MFI (HLA-B*0801 (B8) (human)): 274 MFI
- MFI (HLA-B*1516 (B63) (human)): 756 MFI
- MFI (HLA-B*1402 (B65) (human)): 152 MFI
Substance: IVIg Sandoglobulin (Novartis, Basel, Switzerland) (antibody)

- Difference % (iBead against regular bead MFI) [6]: -68%
- Difference % (iBead against regular bead MFI) [7]: -100%
- Difference % (iBead against regular bead MFI) [8]: -100%
- Difference % (iBead against regular bead MFI) [9]: -100%
- Difference % (iBead against regular bead MFI) [10]: -100%
- Difference % (iBead against regular bead MFI) [11]: -97%
- Difference % (iBead against regular bead MFI) [12]: 0%
- Difference % (iBead against regular bead MFI) [13]: -82%
- Difference % (iBead against regular bead MFI) [14]: -57%
- Difference % (iBead against regular bead MFI) [15]: -100%
- Difference % (iBead against regular bead MFI) [16]: -100%
- Difference % (iBead against regular bead MFI) [17]: -100%
- Difference % (iBead against regular bead MFI) [18]: -39%
- Difference % (iBead against regular bead MFI) [19]: -100%
- Difference % (iBead against regular bead MFI) [20]: -100%
- MFI [21]: 956 MFI
- MFI [22]: 9970 MFI
- MFI [23]: 1000 MFI
- MFI [24]: 54 MFI
- MFI [25]: 4970 MFI
- MFI [26]: 0 MFI
- MFI [27]: 4000 MFI
- MFI [28]: 2200 MFI
- MFI [29]: 964 MFI
- MFI [30]: 2440 MFI
- MFI [31]: 393 MFI
- MFI [32]: 364 MFI
- MFI [33]: 0 MFI
- MFI [34]: 1670 MFI
Substance: Octagam (IVIg, Octapharma, Lachen, Switzerland) (antibody)
